According to patent publication US20060115475A1 (published 2006):

Columns and labels:
[1] = molecular target: T1, Human hexa-histidine-TLR3 (human, UniProt O15455 24-703, limits assumed); test: Biacore 3000, hexa-histidine-TLR3 captured on anti-His antibody, mAb in solution, 25 C, 1:1 model
T1 construct: Captured by anti-His antibody on a CM5 chip; also called TLR3 (captured on the chip surface); not shown: hexa-histidine tag

[2] = molecular target: T2, soluble human TLR3 extracellular domain (human, UniProt O15455 24-703); test: Biacore 2000, mAb captured on protein A, TLR3 in solution, 25 C, 1:1 model
T2 construct: also called hTLR3 extracellular domain; extracellular domain of human TLR3
Method: Measurement of binding affinity by Biacore was performed by mAb capture and TLR3 capture techniques. MAb capture analysis was performed at 25° C. using a Biacore 2000 biosensor equipped with a CM5 chip with surfaces modified with protein A (6,000 RU) at 25° C. by standard amine coupling. Antibody was diluted to 30 nM and captured for one minute on different protein A surfaces. TLR3 was injected at 0, 0.1, 0.3, 1.0, 3.0, and 9.0 nM and associations and dissociations were monitored for 5 minutes. The protein A modified surfaces were regenerated using two 6-second pulses 100 mM phosphoric acid. Available binding data sets were fit to a 1:1 interaction model (CLAMP™). The rate constants and their ratio (KD=kd/kₐ) and the error of fit carried over the estimate of the apparent equilibrium constants were calculated.

[3] = molecular target: T2, soluble human TLR3 extracellular domain; test: ELISA, coated soluble hTLR3 extracellular domain, HRP-labeled anti-human IgG
[4] = molecular target: T2, soluble human TLR3 extracellular domain; test: ELISA, TLR3 binding assay as in Example 20

Binder | Kd [1] [nM] | Kd [2] [nM] | EC50 [3] [µg/mL] | EC50 [4] [µg/mL]
human-adapted anti-TLR3 mAb HV1/LV1 (antibody, human IgG4, V domains shown, Human IgG4 (S228P, F234A, L235A), kappa; not shown: human kappa light chain constant region) VH: QVQLVQSGAEVKKPGASVKVSCKASGYTFTTYWIHWVRQAPGQRLEWMGEINPNNGRINYNEKFKTRVTITRDTSASTAYMELSSLRSEDTAVYYCARVGVMITTFPYWGQGTLVTVSS VL: DIQMTQSPSSLSASVGDRVTITCRASGNIHNYLAWYQQKPGKAPKLLIYNAKTLADGVPSRFSGSGSGTDFTLTISSLQPEDFATYYCQHFWSTPFTFGQGTKLEIK | 1.7 | – | – | –
human-adapted anti-TLR3 mAb HV5/LV1 (antibody, human IgG4, V domains shown, Human IgG4 (S228P, F234A, L235A), kappa; not shown: human kappa light chain constant region) VH: QVQLVQSGAEVKKPGASVKVSCKASGYTFTTYWIHWVRQATGQGLEWMGEINPNNGRINYNEKFKTRVTMTRNTSISTAYMELSSLRSEDTAVYYCARVGVMITTFPYWGQGTLVTVSS VL: DIQMTQSPSSLSASVGDRVTITCRASGNIHNYLAWYQQKPGKAPKLLIYNAKTLADGVPSRFSGSGSGTDFTLTISSLQPEDFATYYCQHFWSTPFTFGQGTKLEIK | 0.65 | 2 | 0.0155 | –
human-adapted anti-TLR3 mAb HV4/LV7 (antibody, human IgG4, V domains shown, Human IgG4 (S228P, F234A, L235A), kappa; not shown: human kappa light chain constant region) VH: QVQLVQSGAEVKKPGASVKVSCKASGYTFTTYWIHWVRQAPGQGLEWMGEINPNNGRINYNEKFKTRVTMTRDTSISTAYMELSRLRSDDTAVYYCARVGVMITTFPYWGQGTLVTVSS VL: DIQMTQSPSSLSASVGDRVTITCRASGNIHNYLAWFQQKPGKAPKSLIYNAKTLADGVPSRFSGSGSGTDFTLTISSLQPEDFATYYCQHFWSTPFTFGQGTKLEIK | – | – | 0.183 | –
human-adapted anti-TLR3 mAb HV5/LV3 (antibody, human IgG4, V domains shown, Human IgG4 (S228P, F234A, L235A), kappa; not shown: human kappa light chain constant region) VH: QVQLVQSGAEVKKPGASVKVSCKASGYTFTTYWIHWVRQATGQGLEWMGEINPNNGRINYNEKFKTRVTMTRNTSISTAYMELSSLRSEDTAVYYCARVGVMITTFPYWGQGTLVTVSS VL: DIQMTQSPSSLSASVGDRVTITCRASGNIHNYLAWYQQKPGKAPKRLIYNAKTLADGVPSRFSGSGSGTEFTLTISSLQPEDFATYYCQHFWSTPFTFGQGTKLEIK | – | – | 0.0289 | –
human-adapted anti-TLR3 mAb HV4/LV3 (antibody, human IgG4, V domains shown, Human IgG4 (S228P, F234A, L235A), kappa; not shown: human kappa light chain constant region) VH: QVQLVQSGAEVKKPGASVKVSCKASGYTFTTYWIHWVRQAPGQGLEWMGEINPNNGRINYNEKFKTRVTMTRDTSISTAYMELSRLRSDDTAVYYCARVGVMITTFPYWGQGTLVTVSS VL: DIQMTQSPSSLSASVGDRVTITCRASGNIHNYLAWYQQKPGKAPKRLIYNAKTLADGVPSRFSGSGSGTEFTLTISSLQPEDFATYYCQHFWSTPFTFGQGTKLEIK | 3.4 | 0.5 | 0.0602 | –
human-adapted C1068 variant mAb HBV5 (Vh CDR3 M102I in the HV1/LV1 background) (antibody, V domains shown, Made in the HV1/LV1 background; not shown: human kappa light chain constant region) VH: QVQLVQSGAEVKKPGASVKVSCKASGYTFTTYWIHWVRQAPGQRLEWMGEINPNNGRINYNEKFKTRVTITRDTSASTAYMELSSLRSEDTAVYYCARVGVIITTFPYWGQGTLVTVSS VL: DIQMTQSPSSLSASVGDRVTITCRASGNIHNYLAWYQQKPGKAPKLLIYNAKTLADGVPSRFSGSGSGTDFTLTISSLQPEDFATYYCQHFWSTPFTFGQGTKLEIK | – | – | – | 0.0747

Results, then the binder that gave them:

Kd [1] [nM] | Kd [2] [nM] | EC50 [3] [µg/mL] | EC50 [4] [µg/mL] | Binder
– | – | 1.47 | – | human-adapted anti-TLR3 mAb HV7/LV1 (antibody, human IgG4, V domains shown, Human IgG4 (S228P, F234A, L235A), kappa; not shown: human kappa light chain constant region) VH: QVQLVQSGAEVKKPGSSVKVSCKASGGTFSTYWIHWVRQAPGQGLEWMGEINPNNGRINYNEKFKTRVTITADESTSTAYMELSSLRSEDTAVYYCARVGVMITTFPYWGRGTLVTVSS VL: DIQMTQSPSSLSASVGDRVTITCRASGNIHNYLAWYQQKPGKAPKLLIYNAKTLADGVPSRFSGSGSGTDFTLTISSLQPEDFATYYCQHFWSTPFTFGQGTKLEIK
– | – | 0.0187 | – | human-adapted anti-TLR3 mAb HV4/LV5 (antibody, human IgG4, V domains shown, Human IgG4 (S228P, F234A, L235A), kappa; not shown: human kappa light chain constant region) VH: QVQLVQSGAEVKKPGASVKVSCKASGYTFTTYWIHWVRQAPGQGLEWMGEINPNNGRINYNEKFKTRVTMTRDTSISTAYMELSRLRSDDTAVYYCARVGVMITTFPYWGQGTLVTVSS VL: DIQMTQSPSSLSASVGDRVTITCRASGNIHNYLAWYQQKPGKVPKLLIYNAKTLADGVPSRFSGSGSGTDFTLTISSLQPEDVATYYCQHFWSTPFTFGGGTKVEIK
– | – | – | 0.017 | human-adapted C1068 variant mAb HBV1 (Vh CDR1 I34M in the HV1/LV1 background) (antibody, V domains shown, Made in the HV1/LV1 background and generated 'as described above'; not shown: human kappa light chain constant region) VH: QVQLVQSGAEVKKPGASVKVSCKASGYTFTTYWMHWVRQAPGQRLEWMGEINPNNGRINYNEKFKTRVTITRDTSASTAYMELSSLRSEDTAVYYCARVGVMITTFPYWGQGTLVTVSS VL: DIQMTQSPSSLSASVGDRVTITCRASGNIHNYLAWYQQKPGKAPKLLIYNAKTLADGVPSRFSGSGSGTDFTLTISSLQPEDFATYYCQHFWSTPFTFGQGTKLEIK
90 | 7.2 | 0.289 | – | human-adapted anti-TLR3 mAb HV1/LV7 (antibody, human IgG4, V domains shown, Human IgG4 (S228P, F234A, L235A), kappa; not shown: human kappa light chain constant region) VH: QVQLVQSGAEVKKPGASVKVSCKASGYTFTTYWIHWVRQAPGQRLEWMGEINPNNGRINYNEKFKTRVTITRDTSASTAYMELSSLRSEDTAVYYCARVGVMITTFPYWGQGTLVTVSS VL: DIQMTQSPSSLSASVGDRVTITCRASGNIHNYLAWFQQKPGKAPKSLIYNAKTLADGVPSRFSGSGSGTDFTLTISSLQPEDFATYYCQHFWSTPFTFGQGTKLEIK
